In the nanobody polyreactivity screen of Harvey et al. (2022):

Experiment: yeast display, Sf9 membrane polyspecificity reagent, FACS + sequencing; frameworks hold sequencing errors
Method in brief: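 A nanobody's polyreactivity label depends on the gate it was sorted from. Yeast display cells were stained with 10% biotinylated, detergent-solubilized Sf9 membrane reagent for 1 hour at 4 °C, enriched on streptavidin microbeads and sorted by FACS. The low and high (top ~1%) gates were set on anti-HA fluorescence for expression and streptavidin fluorescence for reagent binding.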

Sequence	polyreactivity (PSR sort gate)
QVQLVESGGGLVQAGGSLRLSCAASGSIFERYALGWYSQAPGKEREMVAAITWTGGRTYYADSVKGRFTISRDIAKNTVYLQMNSLKPEDTAVYYCARSYTRRGYDYWGLGTQVTVSS	high polyreactivity
QVQLEESGGGLVQAGGSLRLSCAASGRTIQDNAMGWYRQAHGKERELVAAIRDNGGSTYYADSVKGRFTISRDNAKNTVFLQMNSLKPEDTAVYYCAADQGTGSYDYWGQGTQVTVSS	low polyreactivity
QVQLVESGGGLVQAGGSLRLSCAASGFTFDYYAMGWYRPAPGKERELVAAISWRGTTTYYADSVKGRFTISRDNEKNTVYLQMNSLKPEDTAVYYCAADSLFGHYDYWGHGTQVTVSS	low polyreactivity
QVQLVESGGGLVKAGVSLRLSSDASGRTFALYAMGWYRQAPGKERELVASIRGGGGTNYADSVKGRFTISRDNAKNTVYLQMNSLKPEDTAVYYCAARGYGYRGYYYWGQGTQVTVSS	high polyreactivity
QVQLVESGGGLVQAGGSLRLSCAASGRIFVTNTMGWYRQAPGKERELVAAIDNSAGSTYYADSVKGRFTISRDNAKNTVYLQMNSLIPEDTAVYYCAADYPPYYAYGYWGQGTQVTVSS	low polyreactivity
QVQLVESGGGLVQAGGSLRLSCAASGLTFSKNAMGWYRQAPGKEREVVATISYSSYRTNYADSVKGRFTISRDNANNPVYLQMNSLKPEDTAVYYCAARVSKGWPTHYDYWGQGTQVTVSS	high polyreactivity
QVQLVESGGGLVQAGGSLRLSFAASGRIFYNYAMGWYRQAPGTERELVAAITDSDGSTYADSVKGRFTISRDNAMNTVYFQMNSLKPEDTAVYYCAARRYYPYKYRYGYWGQGTQVTVSS	high polyreactivity
QVQLVESGGCLVQAGGSLRLTCAASGRIFDLYTMGWYRQATGIERELVAGIYGNGDGTYADSVKGLFTISRDNAKNPVYLQMNSLKPEDTAVYYCAADGIYIYHPYTRFDYCGQGTQVTVSS	low polyreactivity
QVQLVESGGGLVQAGGSLRLSCAASGLIFYIYAMGWYRQAPGKERELVAAITTGGRTNYADSVKGRFTISRDNAKNTVELQMNSLKPEDTAVYYCAKDFPIWISHGPDTDNDYWGQGTQVTVSS	low polyreactivity
QVQLVESGGGLVQAGGSLRLSCAASGRIIRSNVMGWYRQAPGKERDLVAGISRSGGSTYYADSVKGRFTISRDNAKNTVYLKMNSLKPEDTAVYYCNAGWWYLGSPFDRDYWGQGTQVTVSS	high polyreactivity
QVQLVESGGGLVQAGGSLRLSCAASGRTLGQNVMGWYRQAPGKERELVAAISSNTAGNTYYADSVKGRFTISRDNAKNTVYLQMNSLKPEDTAVYYCAIVDSFEAILDYWGQGTQVTVSS	low polyreactivity
QVQLVESGGGLVQAGGSLRLSCAASGFTFYWYAMGWYRQAPGKERELVAAISNRGGSTYYADSVKGRFTISRDNAKNTVYLQMNSLKPEDTAVYYCATESRGVGAARYDYWGQGTQVTVSS	high polyreactivity
QVQLVESGGGLVQAGGSLRLSCAASGSIFYVYAMGWYRQAPGKERELVAAITNYADSVKGRFTISRDNAKNTVYLQMNSLKPEDTAVYYCAADWWRVEMDYWGQGTEVTVSS	low polyreactivity
QVQLVESGGGLVQAGGSLLLSCAASGYTFGFYAMGWYTQAPGKERELVAAISASGGSTYYADSVKGRFTISRDNAKNTVYLQMNSVKPEETAVYYCAAVYSVYYHTWVTTRDYYYWGQGTQVTVSS	high polyreactivity
QVQLVESGGGLVQAGGSLRLSCAASGRTFYYYAMGWYRQAPGKERELVARIRSGGSTNYADSVKGRFTISRDNAKNTVYLQMNSLKPEDTAVYYCNSMGAKGYVKGFDYWGQGTQVTVSS	low polyreactivity
QVQLVESGGGLVQAGGSLRLICAASGFIFNAYAMGWYRQAPGKERELVAAISTRGSNTYYADSVKGRFTISRDNAKNTVYLQMNSLKPEDTAVYYCNRVFSYQYKRDYWGQGTQVTVSS	high polyreactivity
QVQLVESGGGLVQAGGSLRLSCAASGFTLFGYAMGWYRQAPGKERELVAAISKDGGSTYYADTVKGRFTISRDNAKNTVYLQMNSLKPEDTAVYYCAARVKRPQSGYDRRYGYWGQGTQVTVSS	high polyreactivity
QVQLVESGGGLVQAGGSLRLSCAASGRIFYEYAMGWYRQAPGKDRELVAAISNSGGSTYYAHSVKGRFTISRDNAKNTVYLQMNSLQPEDTAVYYCAATVRLPNGVRYGYWGQGTQVTGSS	high polyreactivity
QVQLVESGGGLVQAGGSLRLSCAASGFTFWQYAMGSSRTAPGKERELVAAISSRGGSTYYADSVKGRFTISRDKAKNTVYLQMNSLKPEDTAVYYCNARANGFKDGYWGQGTQVTVSS	high polyreactivity
QVQLVESGGGLVQAGGSLRLSCAASGSTMDYNAMGWYRQAPGKERELVAAITNGGSTTYADSVKGRFTISRDNAKNTVYLQMNSLNPEDTAVYYCAAKWYPQLWFWKFLTYNYWGQGPQVTVSS	low polyreactivity
QVQLVESGGGLVQAGGSLRLSCAASGRTFQHYVMGWYRQAPGKERELVDSITNDDSTNYADSVKGRFTISRDNAKITVYLQMNRLKPEDTAVYYCNFDDWGTPVEPGDYDYWGQGTQVTVSS	low polyreactivity
QVQLVESGGGLVQAGGSLRLSCAASGGTLPKYAMGWYRQAPGKERELVARITWNDGTTYYADSVKGRFTISRDNAKNTVYLQMNSLKPEDTAVYYCNTDRAYWFLYPFSYYYWGQGTQVTVSS	low polyreactivity

Sequence	polyreactivity (PSR sort gate)
QVQLVESGGGLVQAGGSLRLSCAASGFTFYVNAMGWYRQAPGKERELVAAITDDGDSTYYADSVKGRFTISRDNAKNTVYLQMNSLKPEDTAVYYCNTVYGPDLYGTEYDYWGQGTQVTVSS	low polyreactivity
QFHLVESGGGLVHAGGSLRLSCAASGNIFPPNTMGWYRQAPGKATELVAVITWSDGGTYADSVKGRFTISRDNAKKTVYLQMNSLKPEDTAVYYCNADYYFAAPKGEYTAWYDYWGKGTQVTVSS	low polyreactivity
QVQLVESGGGLVQAGGSLRLSCAASGFTFAYYAMGWYRQAPGKEREFVAAINKGGGSTNYADSVKGRFTISRDNAKNTVYLQMNSLKPEDTAVYYCNADYFVWYIGRVFSRYGYWGQGTQVTVSS	low polyreactivity
QVQLVESGGGLVQAGGSLRLSCAASGSTFGVYTMGWYIQAPGKERELVAAITKSGGSTYYADSVKGRFTISRDNAKNTVYLQMNSLKPEDTAVYYCNTDYGRYLYYRYGYWGQGTQVTVSS	low polyreactivity
QVQLVESGGGLVQAGGSLRLSCAASGYTLQTYAMGWYRQAPGKERELVAAISYRGGRTYYADSVKGRFTISRDNAKNTVYLQMNSLKPEDTAVYYCATRVRYKDYPYSIRYYWGQGTQVTVSS	high polyreactivity
QVQLVESGGGILQAGGSLRLSCAASGFISSVNAMGWYRQATGKERELVAAISDSATSTYYADSVKGRFTISRDNAKNTVYLQMNSLKPVDTALYYCAAYSHYVGYEYWGQGTQVTVSS	high polyreactivity
QVQLVESGGGLVQAGGSLRLSCAASGSTFDPNDMGWYRPAPGKERQLVASITSRGGSTYYADSVKGRFTISRDNAKNTVYLQMNSLKPEDTAVYYCAAVGGATYSWNGYSWYPWHNYWGQGTQVTVSS	low polyreactivity
QVQLVESGGGLVQAGGSLRLSCAASGRIFVVNAMGWYRQAPGKERELVAAITRRGGSTYADSVKGRFTISRDNAKNTVYLQMNSLKPEDTAVYYCNAESYYGIFRYKYDYWGQGTQVTVSS	high polyreactivity
QVQLVESGGVLVQAGGSLRLSCAASGSTFDSYAMGWYRQAPGKERELVAAISYGGGSTYYADSVKGRFTISRDNAKNTVYLQMNSLKPEDTAVYYCAARNARGVVGRTESKVTYDYWGQGTQVTVSS	high polyreactivity
QVQLVESGGGLVQAGGSLRLSCAASGRIFKWYAMGWYRQAPGKERELVAAITSGGGSTYYADSVKGRFTISRDNAKNTVYLQMNSLKPEDTAVYYCAVKGYRRWGYDYWGQGTQVTVSS	high polyreactivity
QVQLVESGGGLVQAGGSLRLSCAASGSIFSFYAMGWYRQAPGKEMELVATISSGDNTNYADSVKGRFTISRDNAKNTVYLQMNSLKPEDNAVYYCAADAWGVDREYDYWGQGTQVTVSS	low polyreactivity
QVQLVESGGGLVQAGGSLRLSCAASGLTFSTYAMGWYRQAPGKERELVAVIRRTGSTYYADSVKGRFTISRDNAKNTVYLQMNSLKPEDTAVYYCATARRHVSGYDYWGQGTQVTVSS	high polyreactivity
QVQLVESGGGLVQAGGSLRLTCAASGSTFRKNVMGWYRQAPGKERELVARISNSGGSTNYADSVKGRFTISRDNAKITVYLQINSLKPADTAVYNCNARKYTNHATYDYWGQGTQVTVSS	high polyreactivity
QVQLVESGGGLVQAGGSLRLSCAASGRTFYQYDMGWYRQAPGKERELVAAIDWSGGSTYYADSVKGRFTISRDNAKNTVYLQMNSLKPEDTAVYYCNKDSHISTAYDYWGQGTQVTVSS	low polyreactivity
QVQLVESGGGLVQAGGILRLSCAASGFTFLAYAMGWYRQAHGKERELVAAISAYSGRTRYADSVKGRFTISRDNAKNTVYLQMNSLKPEDTAVNYCAARYRGTYRRDYWGQGTQVTVSS	high polyreactivity
QVQLVESGGGLVQAGGSLRLSCAASGSIFDYNAMGWYRQAPGKERELVAAINYSGTRTYYADSVKGRFTISRDNAKNTVYLQMNSLKPEDTADYYCAARVRVPQTARLHEYWGQGTQVTVSS	high polyreactivity
QVQLVESGGGLVQAGASLRLSCAASGRIFARYAMGWYRQAPGKERELVASITRSGGSTYYADSVKGRYTISRDNAKNTVYLQMNSLKPEDTAVYYCAARYGRVRDVIPYDYWGQGTQVTVSS	high polyreactivity
QVQLVESGGGLVQAGGSLRLSCAASGSILAINAMGWYRQAPGKERELVAAINWSGGSTFYADSVKGRFTISRDNAKNTVYLQMNSLKPEDTAVYYCNVEWTDSERGDYYVDYDYWGQGTQVTVSS	low polyreactivity
QVQHVESGGGIVQAGGSLRLSCAASGSTFRWYAMGWYRQARGQERELVAAFTAGGRTYYADSVKGRFTISRDNAKNTVYLQMNSLKPEDTAVYYCNALGKVWRGGKFGYWGQGTQVTVSS	high polyreactivity
QVQLVESGGGLVQAGGSLRLAVLPPVLPSTLNDMGWYRQAPGKERELVAAITRGGSTNYADSVKGRFTISRDNAKNTVYLQMNSQKPEDTAVYYCAAPYAGWRDGGDNWGQGTQVTVSS	low polyreactivity
HVQLQESGGGLVQAGVSLRLSCAASGNISYSRNMGWYRQAPGKERELVAAIDRGAITYYADSVKGRFTISRDNAKNTVYLQIYSLKPEDTAVYYCAAEYHDRWDHRYWGQGTQVTVSS	high polyreactivity
